Series [1] concerns PRRSV LHVA-93-3 virion, M/GP5 surface complex (Porcine reproductive and respiratory syndrome virus type 2). Kind of series: cell_activity. To be noted: protection of MARC-145 cells, 500 pmole aptamer, MTT assay; also reduces lung titre in swine. For orientation: Tetrazolium assays rely on reduction of a dye to a coloured formazan, in cell work by metabolically active cells.
For series [2], the system named is PRRSV NVSL virion, M/GP5 surface complex (Porcine reproductive and respiratory syndrome virus type 2). Kind of series: cell_activity. To be noted: protection of MARC-145 cells, 500 pmole aptamer, MTT assay.
Series [3] concerns the target T1, PRRSV type 1 (Lelystad) M-S-S-GP5 disulfide-linked heterodimer peptide complex (Porcine reproductive and respiratory …, UniProt Q04565;Q04569).
T1 chain 1: MGGLDDFCNDPIAAQ
T1 chain 2: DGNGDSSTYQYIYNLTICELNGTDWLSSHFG
Kind of series: ELONA; type 1 complex. The note with it: protein: synthetic.

Series [4] deals with T2, PRRSV type 2 M(1-16)-S-S-GP5(31-61) disulfide-linked heterodimer peptide complex (Porcine reproductive and respiratory …).
T2 chain 1: MGSSLDDFCHDSTAPQ
T2 chain 2: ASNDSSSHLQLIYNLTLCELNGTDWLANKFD
Kind of series: ELONA; streptavidin plate, PBS-T, 37 C. To be noted: protein: synthetic, tags: His-labelled (Ni-NTA captured), synthetic glycosylated peptide complex, disulfide M Cys9-GP5 Cys48.

[5] abbreviates: label: biotin (reverse screening ELISA).

With “GGGCGACCCTGAAGAGTTTGTAATCTGCGATTTTAAAGTTGAGTCGTCGCGAAACGGTGAAAGCCGTAGGTTGCCC [A505 (CoocSeq5)]”, the activity in series [1] is 60%; in series [2] it was 70%.

B1: PEU-852 (ssDNA)
DNA: GGGCGACCCTGAAGAGGACACTGCACGTACACAACGAGGATGAACACGAAACGGTGAAAGCCGTAGGTTGCCC
As for B1, in series [3], the binding result is “binds”.

B2: PEU-424 (ssDNA)
DNA: GGGCGACCCTGAAGAGGATGTTGATAGAGCGCCGACCACACACGCACGAAACGGTGAAAGCCGTAGGTTGCCC
For the molecule B2, in series [3], the binding result was “binds”.

B3: PEU-499 (ssDNA)
DNA: GGGCGACCCTGAAGAGTACACACGGGACACACACACACTCACTAGACGAAACGGTGAAAGCCGTAGGTTGCCC
On to B3, for which the binding result in series [3] is given as “binds”.

B4: PEU-842 (ssDNA)
DNA: GGGCGACCCTGAAGAGGACCAGAAGCACGGACCACACACAGCGTATCGAAACGGTGAAAGCCGTAGGTTGCCC
For the molecule B4, in series [3], the binding result is listed as “binds”.

B5: A507 (CoocSeq7_HistoSeq14) (ssDNA)
DNA: GGGCGACCCTGAAGAGGTTTGCATATTATAGTTATAGGAGGTGTGTAATGGACGAAACGGTGAAAGCCGTAGGTTGCCC
On to B5, for which, in series [4] (setting [5]), the binding result is “binds”.

B6: A508 (CoocSeq8) (ssDNA)
DNA: GGGCGACCCTGAAGAGACTGGTGAGTTAATGTTTTTTCTTAGCCTTGTATCGAAACGGTGAAAGCCGTAGGTTGCCC
On to B6, for which, in series [4] (setting [5]), the binding result is given as “binds”.

B7: PEU-962 (ssDNA)
DNA: GGGCGACCCTGAAGAGGATAGACAATAGCACACCACGCCCCTGCCACGAAACGGTGAAAGCCGTAGGTTGCCC
As for B7, the binding result in series [3] is recorded as “binds”.

B8: A505 (CoocSeq5) (ssDNA)
DNA: GGGCGACCCTGAAGAGTTTGTAATCTGCGATTTTAAAGTTGAGTCGTCGCGAAACGGTGAAAGCCGTAGGTTGCCC
For B8, the binding result in series [4] (label: 5' biotin (reverse screening ELISA)) is “binds”.

Values taken from patent publication US20180371461, “[…], NUCLEIC ACID MOLECULES, POLYNUCLEOTIDES, […] ANTIBODIES COMPOSITIONS FOR […] PRRS VIRUSES AND […] PRRS VIRUS INFECTION” (AEROVIRUS TECHNOLOGIES INC., published 2018).
